Consider twelve molecules from patent publication US20210206855A1 (ADAGENE, published 2021).

In general, EC50 refers to the concentration that produces a half-maximal response.

Residue numbers refer to the chain shown, from its start.

The target of assay [1] is T1, cynomolgus monkey CTLA4 antigen fused with human FC fragment (cynomolgus monkey, UniProt G7PL88 36-161, fused to a human Fc fragment that is not in the letters).
T1 sequence: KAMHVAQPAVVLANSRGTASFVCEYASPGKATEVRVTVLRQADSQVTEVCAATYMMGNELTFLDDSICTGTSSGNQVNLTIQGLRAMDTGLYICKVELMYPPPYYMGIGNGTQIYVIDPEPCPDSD
Nature of the assay: ELISA, captured Fab. For orientation: In an ELISA, binding on a coated surface is turned into a signal by an enzyme label.

Assay [2] has as its target T2, recombinant human CTLA4-Fc (Sino Biological, 11159-H03H) (human, UniProt P16410 37-162).
T2 construct: bought; whole entry named; Biotinylated in the yeast display assays; also called human CTLA4 fused with human FC fragment; biotinylated CTLA4-Fc; not shown: human Fc fragment
T2 sequence (looked up): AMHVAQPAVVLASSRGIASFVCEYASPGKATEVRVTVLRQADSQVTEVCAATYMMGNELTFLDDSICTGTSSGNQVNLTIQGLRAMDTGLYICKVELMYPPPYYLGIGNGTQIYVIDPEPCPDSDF
Nature of the assay: ELISA, coated human CTLA4-Fc, batch 2. How it is done:
(§1) Plates were blocked with PBS supplemented with 3% non-fat milk at 37° C. for 1 hour. After washing, 100 μL of 3-fold serial dilutions of antibodies were added to each well. After incubation at 37° C. for 1 hour, plates were washed four times, and […] conjugated anti-human IgG (Fab specific) (1:6000 dilution) was added to each well. Plates were incubated at 37° C. for 1 hour, washed four times, and then 50 μL TMB substrate solution was added to each well, and the plate was incubated at room temperature. […] The EC₅₀ was evaluated by fitting the ELISA data using the asymmetrical sigmoidal (five-parameter logistic equation) model of GraphPad Prism 6 software.

Assay [3] has as its target T2, recombinant human CTLA4-Fc (Sino …). The experiment in a line: ELISA, coated human CTLA4-Fc (as Example 8). Here is the method:
as §1

Assay [4] shares this target. Nature of the assay: ELISA, coated human CTLA4-Fc (as Example 8). Here is the method: as §1
The source holds these as a separate data set.

The target is the same in assay [5]. The experiment in a line: ELISA, coated human CTLA4-Fc, batch 1. How it is done: as §1
Assay [6] has as its target T3, canine CTLA4 fused with His tag (canine, UniProt Q9XSI1 36-162, limits assumed).
T3 construct: soluble protein; also called dog CTLA4; not shown: His tag
T3 sequence (looked up): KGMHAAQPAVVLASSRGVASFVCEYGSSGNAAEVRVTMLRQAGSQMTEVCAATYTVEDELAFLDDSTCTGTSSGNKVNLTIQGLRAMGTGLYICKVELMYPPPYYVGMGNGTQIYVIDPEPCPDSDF
Nature of the assay: ELISA, coated canine CTLA4-His. How it is done: (§2) The ability of certain IgG antibodies to bind to soluble human (FIG. 1A, Table 5A) or canine (FIG. 1B, Table 5B) CTLA4 was next tested. 1 μg/mL human CTLA4 fused with human FC fragment, or canine CTLA4 fused with His tag, were prepared and used to coat an ELISA plate at 2-8° C. overnight. After blocking, 100 μL serial diluted IgG antibodies were added and incubated at 37° C. for 1 hour. Plates were washed for four times and then incubated with HRP-anti human IgG (Fab specific) (1:6000 dilution) at 37° C. for 1 hour. Plates were washed again four times and incubated with TMB substrate for 15 minutes at room temperature. […] The data was analyzed by Graphpad Prism 6 with nonlinear fitting.

Assay [7] concerns the target T4, recombinant human CTLA4 fused with human Fc and His tag (human, UniProt P16410 37-162, limits assumed, biotinylated where used in solution).
T4 construct: also called biotinylated human CTLA4 fused with human FC and His tag; recombinant human CTLA4 proteins; not shown: human Fc and His tag
T4 sequence (looked up): T2 sequence (looked up)
The experiment in a line: competition ELISA: plate-bound human CTLA4-Fc-His, biotinylated human CD80 as the blocked ligand, HRP-neutravidin. Here is the method: Plates were blocked with PBS supplemented with 2% (w/v) skim milk at 37° C. for 1 hour. […] Plates were washed four times, and 100 μL HRP-neutravidin (1:1000) was added to each well and incubated at 37° C. for 1 hour. Plates were washed as previously described, and 50 μL TMB substrate solution was added and incubated at room temperature for 5 minutes before the reaction was stopped by 50 μL sulfate acid (2M).

Assay [8] addresses T2, recombinant human CTLA4-Fc (Sino …). Nature of the assay: ELISA, coated human CTLA4-Fc. Here is the method: as §2

B1: B15722 (Fab, V domains shown)
VH: EVQLVESGGGLVQPGGSLRLSCAASGFTFSDYGIHWVRQAPGKGLEWIGEIYHSGSTYYSPSLKSRVTISRDNSKNTLYLQLNSLRAEDTAVYYCARDVAPGSSGYYDGFDFWGQGTLVTVSS
VL: DIQLTQSPSSLSASVGDRVTITCRASQGIGSSLAWYQQKPGKAPKLLIYDASNRATGIPSRFSGSGSGTDFTLTISSLQPEDFATYYCQQYDQWPPWTFGQGTKVEIKR
notes: Fab hit from E. coli
For the molecule B1, the binding result in assay [1] is recorded as “binds”.

B2: TY22566 (antibody, IgG1, V domains shown)
VH: EVQLVESGGGLVQPGGSLRLSCAASGYSISSGYHWSWIRQAPGKGLEWLARIDWDDDKYYSTSLKSRLTISRDNSKNTLYLQLNSLRAEDTAVYYCARSYVYFDYWGQGTLVTVSS
VL: EVGSYPNPASDCVPYYYACAYSGRSAGGGGSPLGLAGSGGSDIQLTQSPSSLSASVGDRVTITCRASQSVRGRFLAWYQQKPGKAPKLLIYDASNRATGIPSRFSGSGSGTDFTLTISSLQPEDFATYYCQQSSSWPPTFGQGTKVEIKR
As for B2, in assay [2], the concentration giving a half-maximal response (EC50) stood at 163 nM and the LogEC50 is -6.79 log M.

B3: TY22564 (antibody, IgG1, V domains shown)
VH: B2 VH
VL: EVGSYYSAYPACDSHYPYCNSAGRSAGGGGSPLGLAGSGGSDIQLTQSPSSLSASVGDRVTITCRASQSVRGRFLAWYQQKPGKAPKLLIYDASNRATGIPSRFSGSGSGTDFTLTISSLQPEDFATYYCQQSSSWPPTFGQGTKVEIKR
In the case of B3, in assay [2], the EC50 came to 39 nM and the LogEC50 was -7.41 log M.

B4: TY22563 (antibody, IgG1, V domains shown)
VH: B2 VH
VL: B3 VL with N20Q, A22S
Consider B4, for which, in assay [2], the 50% effective concentration (EC50) is 47.7 nM and the LogEC50 is -7.32 log M.

B5: TY22402 (peptide as listed in Table 26) (antibody, V domains shown)
VH: B2 VH
VL: EVGSYIVHHSDCDAFYPYCDSSGRSAGGGGTPLGLAGSGGSDIQLTQSPSSLSASVGDRVTITCRASQSVRGRFLAWYQQKPGKAPKLLIYDASNRATGIPSRFSGSGSGTDFTLTISSLQPEDFATYYCQQSSSWPPTFGQGTKVEIKR
notes: kept apart from m66
On to B5, for which the values for the concentration for a half-maximal effect (EC50) in assay [3] and in assay [4] were 54 nM and 116 nM, respectively.

B6: TY22401 (antibody, V domains shown)
VH: B2 VH
VL: EVGSYNFVADSCPDHPYPCSASGRSAGGGGSPLGLAGSGGSDIQLTQSPSSLSASVGDRVTITCRASQSVRGRFLAWYQQKPGKAPKLLIYDASNRATGIPSRFSGSGSGTDFTLTISSLQPEDFATYYCQQSSSWPPTFGQGTKVEIKR
notes: peptide fused to the N-terminus of the light chain; also called masking peptide B13189
Consider B6, for which the half-maximal effective concentration (EC50) is 23.8 nM in assay [5] and 15.9 nM in assay [2]. For the same molecule, the LogEC50 in assay [5] is -7.62 log M; in assay [2] it was -7.8 log M.

B7: TY22402 (antibody, IgG1, V domains shown)
VH: B2 VH
VL: B5 VL with T31S
notes: also called masking peptide B13180
In the case of B7, the EC50 in assay [5] is 478 nM; in assay [2] it was 125 nM. The LogEC50 in assay [5] is -6.32 log M; in assay [2] it was -6.9 log M.

B8: TY22565 (antibody, IgG1, V domains shown)
VH: B2 VH
VL: B2 VL with N7Q, A9S
For the molecule B8, in assay [2], the 50% effective concentration (EC50) was determined as 210 nM and the LogEC50 is -6.68 log M.

B9: TY21687 (antibody, V domains shown)
VH: EVQLVESGGGLVQPGGSLRLSCAASGFTFSGYAIHWVRQAPGKGLEWIGIISPSGGGTKYAQKFQGRVTISRDNSKNTLYLQLNSLRAEDTAVYYCARHPFAYWGQGTLVTVSS
VL: DIQLTQSPSSLSASVGDRVTITCRASQSVDFYGISFLDWYQQKPGKAPKLLIYDASNRATGIPSRFSGSGSGTDFTLTISSLQPEDFATYYCQQYVSSPPEYTFGQGTKVEIK
As for B9, the LogEC50 in assay [6] is -9.13 log M; in assay [8] it was -9.49 log M. Moreover, the “IC50 (read off the curve)” value in assay [7] was roughly 40 nM.

B10: TY21585 (antibody, V domains shown)
VH: EVQLVESGGGLVQPGGSLRLSCAASGFTFSDYAIHWVRQAPGKGLEWIGIISPSSGSTNYAQKFQGRVTISRDNSKNTLYLQLNSLRAEDTAVYYCARDIHSGSSGYYYGFDVWGQGTLVTVSS
VL: B9 VL with Q27E, Y32F, D38A, Q94H, V96T, E101V
With B10, the LogEC50 was -8.22 log M in assay [6] and -9.26 log M in assay [8]. Moreover, in assay [7], the “IC50 (read off the curve)” value is roughly 20 nM.

B11: TY21591 (antibody, V domains shown)
VH: EVQLVESGGGLVQPGGSLRLSCAASGFSLSTGGVAVSWIRQAPGKGLEWIGEIYHSGSTYYSPSLKSRVTISRDNSKNTLYLQLNSLRAEDTAVYYCARRIATATYFDYWGQGTLVTVSS
VL: DIQLTQSPSSLSASVGDRVTITCRASQTVFSRYLAWYQQKPGKAPKLLIYDASNRATGIPSRFSGSGSGTDFTLTISSLQPEDFATYYCQQSYYWPPWTFGQGTKVEIK
For the molecule B11, the LogEC50 in assay [6] is -9.15 log M; in assay [8], -9.08 log M.

B12: B15740 (Fab, V domains shown)
VH: EVQLVESGGGLVQPGGSLRLSCAASGFTFSDYWIHWVRQAPGKGLEWIGWISPSGGGTKYAQKFQGRVTISRDNSKNTLYLQLNSLRAEDTAVYYCARGAYEFDYWGQGTLVTVSS
VL: DIQLTQSPSSLSASVGDRVTITCRASQSVSSRFLAWYQQKPGKAPKLLIYDASNRATGIPSRFSGSGSGTDFTLTISSLQPEDFATYYCQQSYPTPLTFGQGTKVEIKR
notes: Fab hit from E. coli
As to B12, the binding result in assay [1] was “binds”.
